The text below walks through data of publication doi:10.1101/718072.

Assay [1] addresses FliF (flagellar MS-ring protein) from Salmonella enterica serovar Typhimurium (Salmonella enterica serovar Typhimurium) (UniProt P15928). Kind of assay: cryo-EM structure.
The target is the same in assay [2]. Kind of assay: cryo-EM structure. The source holds these as a separate data set.

Read-outs that look alike come from different tables or passages of the source.

Regarding “FliF (flagellar MS-ring protein) from Salmonella enterica serovar Typhimurium (from UniProt P15928 1-560) (natural protein)”, the stoichiometry N in assay [1] worked out at 34; in assay [2] it was 33.
